# In article PMC6690965, “OsCAldOMT1 is a bifunctional O-methyltransferase involved in the biosynthesis of tricin-lignins in rice cell walls” (Scientific Reports, 2019):
# B1: OsCAldOMT1 (Oryza sativa Japonica Group) (protein)
# chain: MGSTAADMAAAADEEACMYALQLASSSILPMTLKNAIELGLLETLQSAAVAGGGGKAALLTPAEVADKLPSKANPAAADMVDRMLRLLASYNVVRCEMEEGADGKLSRRYAAAPVCKWLTPNEDGVSMAALALMNQDKVLMESWYYLKDAVLDGGIPFNKAYGMTAFEYHGTDARFNRVFNEGMKNHSVIITKKLLDLYTGFDAASTVVDVGGGVGATVAAVVSRHPHIRGINYDLPHVISEAPPFPGVEHVGGDMFASVPRGGDAILMKWILHDWSDEHCARLLKNCYDALPEHGKVVVVECVLPESSDATAREQGVFHVDMIMLAHNPGGKERYEREFRELARAAGFTGFKATYIYANAWAIEFTK
# Assays:
# [1] = substrate: COc1cc(-c2cc(=O)c3c(O)cc(O)cc3o2)cc(O)c1O; assay: HPLC/LC-MS O-methylation assay, Michaelis-Menten fit; type: biochemical, Oryza sativa; settings: 50 mM Tris-HCl pH 7.5, co-substrate S-adenosyl-L-methionine, 20 min, 10-200 µM substrate, 5'-O-methylation giving tricin
# [2] = substrate: COc1cc(/C=C/C=O)cc(O)c1O; assay: as above; type: biochemical, Oryza sativa; settings: 50 mM Tris-HCl pH 7.5, co-substrate S-adenosyl-L-methionine, 20 min, 10-200 µM substrate
protein,measurement,setting,value
B1,Km,[1],68.2 ± 14.5 µM
same,kcat,[1],158.5 ± 16.6 s⁻¹
same,Km,[2],132.8 ± 21.3 µM
same,kcat,[2],373.0 ± 37.9 s⁻¹
